Measured values from US20090062150A1 (published 2009).

Biological target: T1, 7-mer (AGAIAGG) derived from Toxoplasma gondii micronemal proteins (MIC2) (Toxoplasma gondii)
T1 construct: also called MIC2 peptide; MC2
Test: crystal soak, X-ray structure

B1: N-terminally truncated GlpG transmembrane core domain (residues 87-276), E. coli rhomboid protease (enzyme)
chain: AALRERAGPVTWVMMIACVVVFIAMQILGDQEVMLWLAWPFDPTLKFEFWRYFTHALMHFSLMHILFNLLWWWYLGGAVEKRLGSGKLIVITLISALLSGYVQQKFSGPWFGGLSGVVYALMGYVWLRGERDPQSGIYLQRGLIIFALIWIVAGWFDLFGMSMANGAHIAGLAVGLAMAFVDSLNARKRK
notes: range 87-276; also called GlpG core; truncated GlpG core domain
binding result: binds
